# According to the RNAGym collection of RNA variant scans (doi:10.1073/pnas.2313332121):
# B1: TPR t1 (parent)
# chain: GACCAAUCUGCCCUCAGAGCUCGAGAACAUCUUCGGAUGCAGAGGAGGCAGGCUUCGGUGGCGCGAUAGCGCCAACGUCCUCAACCUCCAAUGCAUCCCACCACAUGAUGAUGCCUGAAGAGCCUUGGUUUUUUG
# Variants of: B1
# Assay: polymerase ribozyme fitness, log enrichment relative to wild type (log ratio); higher = more active; in vitro selection for triplet polymerase activity
# Summary of the method: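 Mutant libraries were PCR-built and transcribed for each subunit of a heterodimeric triplet polymerase ribozyme and selected for one round in triplicate at −7 °C, frozen, before gel excision of extended constructs and streptavidin-bead capture. Input and output libraries were Illumina-sequenced, keeping genotypes with ≥10 input reads and ≥1 read per output. Fitness is a logarithmic ratio of genotype to wild-type enrichment, in base 2, using inverse-variance-weighted replicate averages.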
row,Variant,polymerase ribozyme fitness (log ratio)
1,A16G A91U G113U,-2.28
2,A16U G36C C62A A121C,-1.88
3,A16U C28U G71U,-3.34
4,G17A U112A,-1.5
5,A16U A84U A100U C124A U129G,-0.308
6,A16G C98U,-3.02
7,A16G U55A G60A G93U C102U U130G,-3.39
8,A16U G52U A111C U126G G127U,-2.8
9,G17A G44A,-3.41
10,G17U G47A C49U C53U C72U,-4
11,G17U G57A C101A G107U G120C G127A U132C,-5.32
12,A16U G47U G69C,-3.2
13,G17C G120C,-1.58
14,A16G C56A G71U C124A U130A,0.162
15,A16U G36A G44U A83C,-5.08
16,A16U C53G,-1.82
17,G17U C82G,-2.98
18,G17A U21A G36U A41U A84C C97U C124A,-6.13
19,G17C U87A,-3.72
20,A16U U55A U81A A84C U132A,-2.61
21,G17U C28U G39A G110A,-2.46
22,G17U G39U G110U,-4.99
23,G17U A118U,-3.56
24,G17C G61U C114A,-5.45

row,Variant,polymerase ribozyme fitness (log ratio)
1,A16U U112A,0.0459
2,G17A G122A,-3.37
3,A16U C56U,-1.86
4,G17U C34A G63A C79U C115A,-3.37
5,A16G A37U G71U A90G,-1.9
6,G17C C72U C101A C115A C123A,-5.23
7,A16G A18C U54G A121G,0.49
8,A16U A37C C73G U112C U133G,-1.75
9,G17U G117A,-3.31
10,G17U G42A,-3.86
11,A16U G113A C123U,-4.77
12,A16G C49G G51U C86A U126C,-4.58
13,G17A G48C C49G A84U C124U,-2.52
14,G17U C70G C82G C124A U131G,-4.66
15,G17U G69A C114G,-5.6
16,A16U G110A U132C,-2.1
17,G17A C62A,-4.08
18,G17A C62U,-3.04
19,A16U G48U C62G C85A,-3.66
20,A16U G52A,-2.03
21,G17A C72U A90U A121G,0.0637
22,G17A G127C,-4.54
23,A16U C49A A121U U129G,-0.0419
24,G17U G63A U112A U125G,-3.29

row,Variant,polymerase ribozyme fitness (log ratio)
1,A16U A26G C88U C124G,-1.11
2,A16U C73U A83U A95C,-2.3
3,G17A C101G,-5.5
4,G17C G36C C114G U131G,-4.72
5,A16G G39A C114U,-4.17
6,G17C A43U G61A U87G G120C,-1.48
7,G17C G48U G60A C89G C102A C114A,-6.76
8,G17A U96C,-3.36
9,A16U G17U C124A,-1.9
10,A16G G61A A74C U78G U112A,-4.17
11,G17C A83C A119G,-1.01
12,G17U A111G U133G,-2.2
13,G17A C72G C124G,-0.994
14,G17A G47U U54C G71C G77U G117C,-8.04
15,G17A A27C G57C C73A G93U G113C A118C U125A,-7.69
16,G17A C28G G48A U96G A100G U112G A121C,-6.43
17,A16U U133G,-2.05
18,G17U G52U A83G C85U G120U,-3.18
19,G17A G61A C64U C73U A75C,-4.03
20,A16U A26G C56U C88U C124G,-1.25
21,G17U C64U,-2.46
22,G17U G71U U132A,-2.7
23,A16U G52U U78C A111C U126G G127U,-3.36
24,A16U G45A C70U A118U,-2

row,Variant,polymerase ribozyme fitness (log ratio)
1,A16G C49A C79U G93A G117U C123G,-2.9
2,G17A C62G G63A A74C A90C U109G,-5.9
3,G17U U38A G71C U125A,-4.76
4,A16U C40U C82U,-2.7
5,A16G G42C A43C C123A,-3.43
6,A16G G45A C80G C114U,-5.91
7,A16G G60A G120C,-0.306
8,G17A C28U C62U U109A U116G,-5.8
9,G17C A83G U116G,-5.65
10,A16U C72U,-1.94
11,A16U G93A U133A,-2.82
12,G17U A43U A119U,-5.06
13,A16U G42U U130C,-3.77
14,G17C C20G C73A C88U C99A A100C,-4.19
15,G17A C89G,-3.97
16,G17A C89U,-3.72
17,A16U G63A,-2.16
18,G17U G69U,-0.0598
19,G17A U131A,-1.99
20,A16U C64U,-1.71
21,A16U A37U C97U,-5.8
22,G17A C56A G93U,-4.99
23,G17U C85A,-3.6
24,A16U C88U,-1.68

row,Variant,polymerase ribozyme fitness (log ratio)
1,G17U C56G,-3.08
2,G17U C56U,-2.12
3,G17C G69U G120U G128A,-2.65
4,G17U G61A C72A C89A,-4.9
5,A16G A18C U54G,-0.225
6,A16U C70A U116C U130G,-2.69
7,G17C A18G G42U C80U U112C,-0.371
8,A16G G57C C98U U112A G128C,-5.3
9,A16G C40G C124A,0.0509
10,A16U C40A A100U,-3.86
11,A16U C82G U87A,-3.81
12,G17C C49A,-4.92
13,G17C A43G C101A C104A U106A U112G U126C,-6.47
14,G17A C85U A91C A108G A111C C124U,-6.83
15,A16U C28U G120U,-3.52
16,A16U U106A,-2.08
17,G17C G39A C64U,-4.45
18,A16U C70U,-1.98
19,G17A G63U,-3.9
20,G17A G120C G127U,-1.24
21,G17U C49A G69C U109C C115A,-7.12
22,G17A C72U C114U,-5.33
23,G17A A84U,-2.87
24,A16U C64U U87A U112A A118G,-2.35

row,Variant,polymerase ribozyme fitness (log ratio)
1,G17U G61A C88U C104A U133A,-4.19
2,A16U C72A U131C,-1.73
3,A16U G127U,-2.81
4,A16G C56A C72A C86G G110A U112A,-3.93
5,G17U G51A A121U,-3.76
6,G17U C34A C124G U133A,-2.78
7,A16U A26U,-4.8
8,A16U G63U G113U,-5.93
9,G17U A83U C123G,-1.3
10,G17C C20A,-5.15
11,G17C G69U,-2.68
12,A16U C123A U125A,-0.935
13,G17A G113U,-3.81
14,G17A G113A,-3.43
15,A16U C70A A74U,-4.08
16,G17U C89G,-2.98
17,A16U C53G U59C U96G U112A G128C,-3.81
18,G17C U116G C124A,-2.05
19,G17U G48U C56A U78C U87G U112A,-3.06
20,G17A G52U,-4.1
21,G17U C49U C115U C123G U130A,-4.8
22,G17U A83G,-2.64
23,A16U A29U G36A A43C G44U C53A G63C U112C,-5.08
24,G17C G113A,-6.34

row,Variant,polymerase ribozyme fitness (log ratio)
1,A16U C31U,-4.77
2,G17U G45A G60C,-2.05
3,A16U A83C G120U C123A G127C U131A,-1.95
4,G17A A18C C86G,-3.63
5,G17U C62A,-2.83
6,G17A C79G C124G U125A,-4.5
7,G17C U55G C56A G63C G77U G113A,-5.71
8,G17C C20A A43C C123A U129G,-3.55
9,G17U C114A,-5.05
10,G17U C124G G128C,-1.84
11,G17U G61A,-2.18
12,A16U C94U C101U U116C G128U U132A,-5.42
13,G17A C88U U96C,-3.71
14,G17C C62U,-4.67
15,G17U G117A U129A,-4.12
16,A16U G45C C53G A90G G113A A121C,-4.47
17,G17A C114A,-5.13
18,G17U A18G C56G A84G U131G,-5.98
19,G17U C73G,-2.39
20,A16G U129G,-3.64
21,A16G A50U,-2.5
22,A16G C53G G58A A91C A119U,-4.1
23,G17U G44U C49G,-5.1
